Laboratory results taken from the RNAGym collection of RNA variant scans (doi:10.7554/elife.80360).

B1: HDV Ribozyme (parent)
chain: GGCCGGCAUGGUCCCAGCCUCCUCGCUGGCGCCGGCUGGGCAACAUUCCGAGGGGACCGUCCCCUCGGUAAUGGCGAAUGGGACCCA

Variants of: B1
Test: self-cleavage, relative activity (ratio to wild type); higher = more cleavage; co-transcriptional

Row | Variant | self-cleavage
1 | CGCCGGCAUGGUCCCAGCCUCCUCGCUGACGCCGGCUGGGCAACAUUCCGAGGGGACCGUCCCCUCGGUAAUGGCGAAUGGGACCCA [G1C G29A] | 0.0536
2 | CGCCGGCAUGGUCCCAGCCUCCUCGCUGGCGGCGGCUGGGCAACAUUCCGAGGGGACCGUCCCCUCGGUAAUGGCGAAUGGGACCCA [G1C C32G] | 0
3 | CGCCGGCAUGGUCCCAACCUCCUCGCUGGCGCCGGCUGGGCAACAUUCCGAGGGGACCGUCCCCUCGGUAAUGGCGAAUGGGACCCA [G1C G17A] | 0.332
4 | CGCCGGCAUGGUCCCACCCUCCUCGCUGGCGCCGGCUGGGCAACAUUCCGAGGGGACCGUCCCCUCGGUAAUGGCGAAUGGGACCCA [G1C G17C] | 0
5 | CGCCGGCAUGGUCCCAUCCUCCUCGCUGGCGCCGGCUGGGCAACAUUCCGAGGGGACCGUCCCCUCGGUAAUGGCGAAUGGGACCCA [G1C G17U] | 0.0573
6 | CGCCGGCAUGGUCCCAGCCUCCUCGCUGGCGCCGGCUGGGCAACAUUCCGAGGGGACCCUCCCCUCGGUAAUGGCGAAUGGGACCCA [G1C G59C] | 0.365
7 | CGCCGGGAUGGUCCCAGCCUCCUCGCUGGCGCCGGCUGGGCAACAUUCCGAGGGGACCGUCCCCUCGGUAAUGGCGAAUGGGACCCA [G1C C7G] | 0.0875
8 | CGCCGGCAUGGUCCCAGCCUCCUCGCUCGCGCCGGCUGGGCAACAUUCCGAGGGGACCGUCCCCUCGGUAAUGGCGAAUGGGACCCA [G1C G28C] | 0
9 | CGCCGGCAUGGUCCCAGCCUCCUCGCUGGCGCCGGCUGGGCAACAUUUCGAGGGGACCGUCCCCUCGGUAAUGGCGAAUGGGACCCA [G1C C48U] | 0.227
10 | CGCAGGCAUGGUCCCAGCCUCCUCGCUGGCGCCGGCUGGGCAACAUUCCGAGGGGACCGUCCCCUCGGUAAUGGCGAAUGGGACCCA [G1C C4A] | 0
11 | AGCCGGCAUGGUCCCAGCCUCCUCGCUGGCGCCGGCUGGGCAACAUUCCGAGGGGACCGUCCCCUCGGUAACGGCGAAUGGGACCCA [G1A U72C] | 0.107
12 | AGCCGGCAUGGUCCCAGCCUCCUCGCUGGCGCCGGCUGGGCAACAUUCCGAGGGGACCGUCCCCUCGGUAAAGGCGAAUGGGACCCA [G1A U72A] | 0.246
13 | AGCCGGCAUGGUCCCAGCCUCCUCGCUGGCGCCGGCUGGGCAACAUUCCGAGGGGACCGUCCCCUCGGUAAGGGCGAAUGGGACCCA [G1A U72G] | 0.0665
14 | CGCCGGCAUGGUCCCAGCCUCCUCGCUGGCGCCGGCUCGGCAACAUUCCGAGGGGACCGUCCCCUCGGUAAUGGCGAAUGGGACCCA [G1C G38C] | 0
15 | CGCCGGCAUGGUCCCAGCCUCCUCGCUGGCGCCGGCUUGGCAACAUUCCGAGGGGACCGUCCCCUCGGUAAUGGCGAAUGGGACCCA [G1C G38U] | 0.0396
16 | CGCCGGCAUGGUCCCAGCCUCCUCGCUGGCGCCGGCUGGGCAACAUUCCGAGGGGACCGUCCCCUCGGUAAUGGAGAAUGGGACCCA [G1C C75A] | 0

Row | Variant | self-cleavage
17 | CGCCGGCAUGGUCCCAGCCUCCUCGCUGGCUCCGGCUGGGCAACAUUCCGAGGGGACCGUCCCCUCGGUAAUGGCGAAUGGGACCCA [G1C G31U] | 0.0791
18 | CGCCGGCAUGGUCCCAGCCUCCUCGCUGGCGCCGGCUGGGCAACAUUCCGAGGAGACCGUCCCCUCGGUAAUGGCGAAUGGGACCCA [G1C G54A] | 0.131
19 | CGUCGGCAUGGUCCCAGCCUCCUCGCUGGCGCCGGCUGGGCAACAUUCCGAGGGGACCGUCCCCUCGGUAAUGGCGAAUGGGACCCA [G1C C3U] | 0.34
20 | CGCCGGCAUAGUCCCAGCCUCCUCGCUGGCGCCGGCUGGGCAACAUUCCGAGGGGACCGUCCCCUCGGUAAUGGCGAAUGGGACCCA [G1C G10A] | 0.166
21 | CGCCGGCAUCGUCCCAGCCUCCUCGCUGGCGCCGGCUGGGCAACAUUCCGAGGGGACCGUCCCCUCGGUAAUGGCGAAUGGGACCCA [G1C G10C] | 0.095
22 | CGCCGGCAUGGUCCCAGCCUCCUCGCUGGCGCCGGCUGGGCAACAUUCCGAGGGGACUGUCCCCUCGGUAAUGGCGAAUGGGACCCA [G1C C58U] | 0.0923
23 | CGCCGGCAUGGUCCCAGCCUCCUCGCUGGCGCCGGUUGGGCAACAUUCCGAGGGGACCGUCCCCUCGGUAAUGGCGAAUGGGACCCA [G1C C36U] | 0.394
24 | CGCCGGCAUGGUCCCAGCCUCCUCGCUGGCGCCGGCUGGGCAACAUUCCGAGGGGACCGUCCCCUCGGUAAUGGCGAAUGGGAGCCA [G1C C84G] | 0
25 | CGCCGGCAUGGUCCCAGCCUCCUCGCUGGCGCCGGCUGGGCAACAUUCCGAGGGGACCGUCCCCUCGGUAAUGUCGAAUGGGACCCA [G1C G74U] | 0.133
26 | CGCCGGCAUGGUCCCAGCCUCUUCGCUGGCGCCGGCUGGGCAACAUUCCGAGGGGACCGUCCCCUCGGUAAUGGCGAAUGGGACCCA [G1C C22U] | 0.148
27 | AGCCGGCAUGGUCCCAGCCUCCUCGCUGGCGCCGGCUGGGCAACAUUCCGAGGGGACCGUCCCCUCGGUAAUGGCGAAGGGGACCCA [G1A U79G] | 0.0923
28 | CGCCGGCAUGGUCCCAGCCUCCUCGCUGGCGCCGGCUGGGCAACAUUCCGAGGGGACCGUCCCCUCGCUAAUGGCGAAUGGGACCCA [G1C G68C] | 0.0978
29 | CGCCGGCAUGGUCCCAGCCUCCUCGCUGGCGCCGGCUGGGCAACAUUCCGAGGGGACCGUCCCCUCGGUAAUGGCGACUGGGACCCA [G1C A78C] | 0
30 | CGCCGGCAUGGUCCCAGCCUCCUCGCUGGCGCCGGCUGGGCAAGAUUCCGAGGGGACCGUCCCCUCGGUAAUGGCGAAUGGGACCCA [G1C C44G] | 0.0692
31 | CGCCGGCAUGGUCCCAGCCUCCUCGCUGGCGCCGGCUGGGCAAAAUUCCGAGGGGACCGUCCCCUCGGUAAUGGCGAAUGGGACCCA [G1C C44A] | 0.353
32 | CGCCGGCAUGGUCCCAGCCUCCUCGCUGGCGCCGGCUGGGCAAUAUUCCGAGGGGACCGUCCCCUCGGUAAUGGCGAAUGGGACCCA [G1C C44U] | 0.0615
